Consider 30 sequences from the nanobody polyreactivity screen of Harvey et al. (2022).

This data set in a line: yeast display, Sf9 membrane polyspecificity reagent, FACS + sequencing; frameworks hold sequencing errors. A digest of the protocol:
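Polyreactivity labels are assigned by the sorting gate from which each nanobody was recovered. The gates were low and high (top ~1%), set on anti-HA fluorescence for expression and streptavidin fluorescence for reagent binding. Before sorting, galactose-induced (36–48 hours) yeast display cells were stained for 1 hour at 4 °C with 10% biotinylated, detergent-solubilized Sf9 membrane reagent.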
“QVQLVESGGGLVQAGGSLRLSCAASGSTSQRNAMGWYRQAPGKERELVAAISRSGGSTSYADSVKGRFTISRDNAKNTVYLQMNSLKPEDTAVYYCNTDRRIYRVWYNYWGQGTQVTVSS”: the “polyreactivity (PSR sort gate)” value is listed as “high polyreactivity”.
The result for “QVQLVESGRGLVQAGGSLRLSCAASGSIFIANPMGWYRQAPGKQREFVADITLNGGSTYYADSVKGRFTISRDNAKNTVYLEMNRLNPEDTAVYYCAADWVWVAPQYWIVEYDYWGQGTQVTVSS” reads “low polyreactivity”.
In the case of “QVQLVESGGGLVQAGGSLRLSCAASGRILSANAMGWYRQAPGKERELVAAITYSGDNTYYADSVKGRFTISRDNAKNTVYLQMNSLKPEDTAVYYCAREFQVDGGEEDYWGQGTQVTVSS” it was “low polyreactivity”.
In the case of “QVQLVESGGGLVQAGGSLRLSCAASGRIFRYNAMGWYRQAPGKERELVATISRGGGSTYYADSVKGRFTISLDNAKNTVYLQMNSLKPEDTAVYYCATRYYQDIVGYSRYDYWGQGTQVTVSS”, the “polyreactivity (PSR sort gate)” value is on record as “high polyreactivity”.
Regarding “QVQLVESGGGLVQAGGSLRLSCAASGSIFTGYAMGWYRQAPGKERELVAAISASGTRTYYADSVKGRFTISRDNAKNTVYLQMNSLKPEDTAVYYCARDSLQVFYPYASDDYWGQGTQVTVSS”, the “polyreactivity (PSR sort gate)” value was “low polyreactivity”.
In the case of “QVQLVESGGGLVQAGGSLRLSCAASGGTFYYYAMGWYRQAPGKERELVAAINVSGGNTYYADSVKGRFTISRDNAKNTVYLQMNSLKPEDTAVYYCAADPGARYYYWGQGTQVTVSS” it was “low polyreactivity”; in that of “QVQLVESGGGLVQAGGSLRLRCAASGFIFIFNAMGWYRQAPGKERELVAAIDTSDDSTYYADSVKGRFTISRDNAKNTVYLQMNSLKPEDTAVYYCAAEELSNYEYWGQGTQVTVSS”, “low polyreactivity”; in that of “QVQLVESGGGLVQAGGSLRLSCAASGSIFIYYAMGWYRQAPGKEMELVAAISSSGGSTYYADSVKGRFTISRDNAKNTVYLQMNSLKPEDTAVYYCAAAYGGRLRYTAGYYWGQGTQVTVSS”, “high polyreactivity”.
For the sequence “QVQHVESGGGLVQAGGSQRLSCAASGSIFDYYAMGWYRQAPGKERELVAAISTSTSSTYYADSVKGRFTISRDNAKNTVYLQLNSLKPEDTAVYYCAAVGESQPEYPGYDYWGQGTQVTVSS”, the “polyreactivity (PSR sort gate)” value is given as “low polyreactivity”.
Take “QVQLHGSGGGLVQAGCSLRVSCAASGYIFQNVPMGWTRQAPGKERELVAGIDNGTSTNYADSVNGRFTISRDNAKNTVYMQMNSLKPEDTAVYYCAAAGQADDTLGYWGQGTQVTVSS”: the “polyreactivity (PSR sort gate)” value was “low polyreactivity”.
On to “QVQHVESGGGLVQAGGSLSLSCAASGSTFKHYAMGWYRQAPGKERELVAAISSRGGSTHYADSVKGRFRISRDNAKNTVYLQMNSLKPEDTAVYYCARDTDPQSSRSSDYDYWGQGTQVTVSS”, for which the “polyreactivity (PSR sort gate)” value is listed as “low polyreactivity”.
The result for “QVQLVESGGGLVQAGGSLRLSCAASGSIFPYYAMGWYRQAPGKERELVAAISSGDITDYADSVKGRFTISRDNAKNTVYLQMNSLKPEDTAVYYCAAVYDLGYYGPIWAIVLDDYWGQGTQVTVSS” reads “low polyreactivity”; that for “QVQLVESGGGLVQAGGSLRLSCADSGSTFRYNAMGWYREAPGKERELVADIRRSGGSTYYADSVKGRFTISRDKAKNTVYLQMNSLKPEDTAVYYCNAAVSRLYYHSYSYRSYYYWGQGTQVTVSS”, “high polyreactivity”; that for “QVQRVESGGGLVQAGGRLRLSCAASGLIFAHDARGWYRQAPGKERELVAGINRSGGSTYYADSVKGRFTISRDNAKNTVYLQTNSLKPEDTAVYYCAARRAYPRPGYDYWGQGTQVTVSS”, “high polyreactivity”.
For the sequence “QVQLVESGGGLVQAGGSLRISCAASGGTFQAYAMGWYRPAPGKERELVAAITRRGTRTYYADSVKGRFTISRDNAKNTVYLQMNSLKPEDTAVYYCAAVRYPNWYDYWGQGTQVTVSS”, the “polyreactivity (PSR sort gate)” value was “high polyreactivity”.
In the case of “QVQLVESGGGLVQAGGSLRLSCAASGYTFGINAMGWYRQAPGKERELVAAITTGGSTNYADSVKGRFTISRDNAKNSVYLQMNSLKPEDTAVYYCNASWDVWNANYWYPGAYYYWGQGTQVTVSS” it was “low polyreactivity”.
Turning to “QVQLVESGGGLVQAGGSLRLSCAASGRTFRDYVMGWYRQAPGKERELVAAISTRGASTYYADSVKGRFTISRDYAKNTVYLQMNSLKPEDTAVYYCAARSTRRGNEYDYWGQGTQVTVSS”, the “polyreactivity (PSR sort gate)” value is reported as “high polyreactivity”.
As to “QVQLVESGGGLVQAGGTLSLSCAATGRNLSYAMGWYRQAPGKERELVAAMNWSGGTTYYADSVKGRFTISRDNAKNTVYLQMNSLKQEDTAVYYCAARVRGTGYNSWGQGTQLTVSS”, the “polyreactivity (PSR sort gate)” value is on record as “high polyreactivity”.
The result for “QVQLVESGGGLVQAGGSLRLSCAASGSTFNRYAMGWYRQAPGKERELVAGISYSGTRTYYADSVKGRVTISRDNAKNTVYLQMNSLKPEDTAVYYCAAVYPGPYYARRRLFYWGQGTQVTVSS” reads “high polyreactivity”; that for “QVQLVESGGGLVQAGGSLRLSCAASGITFFQYAMGWSRQAPGKERELVAAISRSGSRTYYADSVKGRFTISRDNAKNTVYLQLNSLKQEDTAVYYCAAARVNDHYGYYRQMNYWGQCTQVTVSS”, “high polyreactivity”; that for “QVQLVESGGGLVQAGGSLRLSFAASGSIINAYAMGWYRQAPGKERELVAAINSGGTTYYADSVKGRFTISRDNAKNTVYLQLNSLKPEDTAVYYCAKTRSYGRSGVSRRDGFYYWGQGTQVTVSS”, “high polyreactivity”.
As for “QVQLVESGGGLVQAGGSLRLSCAASGSTFWSYTMGWYRQAPWKERDLVARNTGRGGSTYYADSVKGRFTISRDNEKNTVYLLMNSLKTEDTAVYYCAAGGGRYGFYRFDYWRQGTQVTVSS”, the “polyreactivity (PSR sort gate)” value was “low polyreactivity”.
The result for “QVQLVETGGGLVQAGGSLRLSCAASGSTFGTYAMGWDRQAPGKERELVAAISSGDSTTYADSVKGRFTISRDNAKNTVYLQMNSLKPEDTAVYYCAARTFLMRNGGYNYWGQGTQVTVSS” reads “low polyreactivity”.
In the case of “QVQLVESGGGLVQAGGSLRLSCAASGRTLKYNPMGWYRQAPGKERELVAAISRSGGRTYYADSVKGRFTIARDIAKYSVYSQINSLKPEDTAVYYCARESSYYKYYYWGQGTQVTLSS” it was “high polyreactivity”; in that of “QVQLVESGGGLVQAGGSLRLSCAASGIIFRYAMGWYRQSPGKERELVARITVGSTYYADSVKGRFTISRDNAKNTVYLQMNSLKPEDTAVYYCNKDSGEDDRWPYDYWGQGTQVTVSS”, “low polyreactivity”.
In the case of “QVQLVESGGGLVQAGGSLRLSCAASGRIFGVYAMGWYRQAPGKERELVAGINGGDSTYYADSVKGRFTISRDNAKNTVYLQMNSLKPEDTAVYYCAAEADESGSNYDYWGQGTQVTVSS”, the “polyreactivity (PSR sort gate)” value is on record as “low polyreactivity”.
The result for “QVQLVESGGGLVQAGGSLRLSCAASGSIFSGYAMGWYRQAPGKERELVAAITSGGSTDYADSVKGRFTISRDNAKNSVYLQMNSLKPEDTAVYYCAAEGGYSSYGYDYWGQGTQVTVSS” reads “low polyreactivity”; that for “QVQLVESGGGLVQAGGSLRLSCAASGLTFIKYAMGWYRQAPGKERELVADITSSGGTTYYADSVKGRFTISRDNAKNTVYLQMNSLKPEDTAVYYCAAGTRTGMNWGQGTQVTVSS”, “high polyreactivity”; that for “QVHLVESGGGLVQAGGSLRLSCAASGSTSDNTMGWYRQAPGKERELVAAISQRGVSTYYADSVKGRFTISRDNAKNTVYLQMNSLKPEDTAVYYCNALLSAKFDYWGQGTQVTVSS”, “low polyreactivity”.
“QDQLVESGGGLVQAGGSLRLSCADYGINFYSYAMGWYRQAPGKEREFVAAISTGSSTNYADSVKGRFTISRDNAKNNVYLQMISLKPEDTAVYYCAKSTAVKPYAYRESGFIYDYWGQGTQLTVSS”: the “polyreactivity (PSR sort gate)” value was “low polyreactivity”.
